In publication PMC8364233:

Key:
[1] = molecular target: MBP-LjNLP4 (564–976) (Lotus japonicus); experiment: SEC-MALS
[2] = molecular target: MBP-LjNIN (551–878) (Lotus japonicus); experiment: SEC-MALS
MBP-LjNLP4 (564-976) = MBP-LjNLP4 (564-976) (Lotus japonicus, UniProt A0A2Z5V8A6 564-976); experiment: EMSA
MBP-LjNIN (551-878) = MBP-LjNIN (551-878) (Lotus japonicus, UniProt Q9S7B1 551-878); experiment: EMSA
[3] = molecular target: MBP-LjNLP4 (564-976);Trx-His-LjNIN (551-878) (Lotus japonicus;Lotus japonicus, UniProt A0A2Z5V8A6;Q9S7B1 564-976;551-878, |); experiment: EMSA

Row | stoichiometry N [1] | stoichiometry N [2] | Molecule | binding result (MBP-LjNLP4 (564-976)) | binding result (MBP-LjNIN (551-878)) | binding result [3]
1 | 2 | – | MBP-LjNLP4 (564–976) (domain or fragment) | – | – | –
2 | – | 2 | MBP-LjNIN (551–878) (domain or fragment) | – | – | –
3 | – | – | CLE-RS2pro (dsDNA) DNA 1: TGAGTTCTGACCCTTAAGCCTTGGAAAGGACAGTCATG DNA 2: CATGACTGTCCTTTCCAAGGCTTAAGGGTCAGAACTCA | binds | binds | –
4 | – | – | LjNF-YBpro (dsDNA) DNA 1: TTTACTTGTATCTTTAGAGCTTTCCAAGGGATATTTCA DNA 2: TGAAATATCCCTTGGAAAGCTCTAAAGATACAAGTAAA | no binding | binds | binds
5 | – | – | LjNIR1pro (dsDNA) DNA 1: CAAACACGACCCTTTGTCACAACCAAAGGTCCATTGTA DNA 2: TACAATGGACCTTTGGTTGTGACAAAGGGTCGTGTTTG | binds | binds | –
